From patent publication US20250002588A1 (DIAGONAL THERAPEUTICS, published 2025) come the findings set out here.

The target in the assay is ALK-1/BMPR-2 receptor pair of the PathHunter U2Os dimerization cells (DiscoverX 93-0962C3) (UniProt P37023 22-503; Q13873 27-1038). In words: cell-based or functional assay.
Sequence of ALK-1/BMPR-2 receptor pair of the PathHunter U2Os dimerization cells (DiscoverX 93-0962C3) (P37023 22-503, chain 1 of 2): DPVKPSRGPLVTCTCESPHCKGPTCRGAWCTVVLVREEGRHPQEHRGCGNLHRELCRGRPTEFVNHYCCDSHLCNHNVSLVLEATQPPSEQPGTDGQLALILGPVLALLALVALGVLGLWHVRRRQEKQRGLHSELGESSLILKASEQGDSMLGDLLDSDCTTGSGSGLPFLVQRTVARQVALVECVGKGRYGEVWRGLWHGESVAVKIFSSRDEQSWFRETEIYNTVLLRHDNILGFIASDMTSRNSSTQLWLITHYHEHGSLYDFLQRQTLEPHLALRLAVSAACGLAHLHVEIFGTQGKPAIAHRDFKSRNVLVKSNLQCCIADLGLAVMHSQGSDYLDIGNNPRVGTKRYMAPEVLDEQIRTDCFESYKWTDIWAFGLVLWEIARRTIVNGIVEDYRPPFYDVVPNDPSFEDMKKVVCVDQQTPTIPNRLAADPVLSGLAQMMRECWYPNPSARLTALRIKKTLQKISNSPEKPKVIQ
Sequence of ALK-1/BMPR-2 receptor pair of the PathHunter U2Os dimerization cells (DiscoverX 93-0962C3) (Q13873 27-1038, chain 2 of 2): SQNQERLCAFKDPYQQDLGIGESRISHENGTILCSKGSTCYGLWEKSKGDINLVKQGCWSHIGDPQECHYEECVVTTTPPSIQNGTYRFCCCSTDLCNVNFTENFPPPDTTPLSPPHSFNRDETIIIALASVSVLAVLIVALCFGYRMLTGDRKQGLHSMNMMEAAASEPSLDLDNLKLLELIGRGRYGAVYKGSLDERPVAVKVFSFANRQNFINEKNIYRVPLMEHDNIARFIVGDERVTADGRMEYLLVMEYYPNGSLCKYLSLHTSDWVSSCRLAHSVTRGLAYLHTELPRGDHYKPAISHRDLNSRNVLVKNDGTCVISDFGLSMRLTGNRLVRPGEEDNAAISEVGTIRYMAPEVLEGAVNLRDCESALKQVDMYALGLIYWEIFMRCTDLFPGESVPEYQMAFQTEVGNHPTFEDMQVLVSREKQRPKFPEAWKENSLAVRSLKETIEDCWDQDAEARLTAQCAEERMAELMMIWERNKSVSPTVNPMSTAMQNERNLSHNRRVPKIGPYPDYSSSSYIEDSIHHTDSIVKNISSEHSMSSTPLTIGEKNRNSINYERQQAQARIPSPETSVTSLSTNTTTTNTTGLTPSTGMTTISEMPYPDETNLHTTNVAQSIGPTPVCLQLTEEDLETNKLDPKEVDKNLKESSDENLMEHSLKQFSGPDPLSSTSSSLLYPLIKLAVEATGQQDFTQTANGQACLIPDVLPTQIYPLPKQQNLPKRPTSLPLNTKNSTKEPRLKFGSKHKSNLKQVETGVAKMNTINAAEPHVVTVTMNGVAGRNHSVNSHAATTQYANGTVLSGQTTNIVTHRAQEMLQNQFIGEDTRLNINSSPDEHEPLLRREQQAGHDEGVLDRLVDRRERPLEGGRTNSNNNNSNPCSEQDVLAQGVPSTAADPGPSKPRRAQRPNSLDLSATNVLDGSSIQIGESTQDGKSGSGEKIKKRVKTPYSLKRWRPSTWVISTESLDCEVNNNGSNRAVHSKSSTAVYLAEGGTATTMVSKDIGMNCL

B1: DGL277 (bispecific antibody)
chain 1: EVQLLESGGGLVQPGGSLRLSCAASGFTFSSYAMSWVRQAPGKGLEWVANINQDGSEKNYVDSMRGRFTISRDNSKNTLYLQMNSLRAEDTAVYYCAREFDYWGQGTLVTVTSSGGGGSGGGGSGGGGSQSVLAQPPSASGTPGQRVTISCSGSSSNIGSNYVYWYQQLPGTAPKLLIYGNNKRPSGVPDRFSGSKSGTSASLAISGLRSEDEADYYCAAWDDSLNGRVFGGGTKLTVLPLAPCPPCPAPEAAGAPSVFLFPPKPKDTLMISRTPEVTCVVVDVSHEDPEVKFNWYVDGVEVHNAKTKPREEQYNSTYRVVSVLTVLHQDWLNGKEYKCKVSNKALPAPIEKTISKAKGQPREPQVYTLPPCRDELTKNQVSLWCLVKGFYPSDIAVEWESNGQPENNYKTTPPVLDSDGSFFLYSKLTVDKSRWQQGNVFSCSVMHEALHNHYTQKSLSLSPGEPEA
chain 2: EVQLLESGGGLVQPGGSLRLSCAASGFTFSDYYMTWIRQAPGKGLEWVSSISGGSTYYADSRKGRFTISRDNSENTLYLQMNSLRAEDTAVYYCARDFGVAGWFGQYGMDVWGQGTLVTVSSGGGGSGGGGSGGGGSQSVLTQPPSASGTPGQRVTISCTGSSSNIGAGYDVHWYQQLPGTAPKLLIYRSNQRPSGVPDRFSGSKSGTSASLAISGLRSEDEADYYCSSYAGNYNLVFGGGTKLTVLPLAPCPPCPAPEAAGAPSVFLFPPKPKDTLMISRTPEVTCVVVDVSHEDPEVKFNWYVDGVEVHNAKTKPREEQYNSTYRVVSVLTVLHQDWLNGKEYKCKVSNKALPAPIEKTISKAKGQPREPQVCTLPPSRDELTKNQVSLSCAVKGFYPSDIAVEWESNGQPENNYKTTPPVLDSDGSFFLVSKLTVDKSRWQQGNVFSCSVMHEALHNHYTQKSLSLSPGWSHPQFEK
With B1, the “% Emax BMP9” value stood at 51%, a half-maximal effect (EC50) was put at 1 nM and the “Emax (RLU)” value stood at 1.35e+06 RLU.

B2: DGL275 (bispecific antibody)
chain 1: not shown
chain 2: EVQLLESGGGLVQPGGSLRLSCAASGFTFSDYYMTWIRQAPGKGLEWVSSISGGSTYYADSRKGRFTISRDNSENTLYLQMNSLRAEDTAVYYCARDFGVAGWFGQYGMDVWGQGTLVTVSSGGGGSGGGGSGGGGSQSVLTQPPSASGTPGQRVTISCTGSSSNIGAGYDVHWYQQLPGTAPKLLIYRSNQRPSGVPDRFSGSKSGTSASLAISGLRSEDEADYYCSSYAGNYNLVFGGGTKLTVLDKTHTCPPCPAPEAAGAPSVFLFPPKPKDTLMISRTPEVTCVVVDVSHEDPEVKFNWYVDGVEVHNAKTKPREEQYNSTYRVVSVLTVLHQDWLNGKEYKCKVSNKALPAPIEKTISKAKGQPREPQVCTLPPSRDELTKNQVSLSCAVKGFYPSDIAVEWESNGQPENNYKTTPPVLDSDGSFFLVSKLTVDKSRWQQGNVFSCSVMHEALHNHYTQKSLSLSPGWSHPQFEK
On to B2, for which the “% Emax BMP9” value is 48%, a half-maximal response (EC50) required 0.9 nM and the “Emax (RLU)” value came to 1.28e+06 RLU.

B3: DGL274 (bispecific antibody)
chain 1: EVQLLESGGGLVQPGGSLRLSCAASGFTFSIYAMSWVRQAPGKGLEWVSAISGSGGSTYYADSVKGRFTISRDNSKNTLYLQMNSLRAEDTAVYYCARDFDYWGQGTLVTVTSSGGGGSGGGGSGGGGSQSVLTQPPSASGTPGQRVTISCSGSSSNIGSNYVYWYQQLPGTAPKLLIYGNINRPSGVPDRFSGSKSGTSASLAISGLRSEDEADYYCAAWDDSLNGRVFGGGTKLTVLPLAPCPPCPAPEAAGAPSVFLFPPKPKDTLMISRTPEVTCVVVDVSHEDPEVKFNWYVDGVEVHNAKTKPREEQYNSTYRVVSVLTVLHQDWLNGKEYKCKVSNKALPAPIEKTISKAKGQPREPQVYTLPPCRDELTKNQVSLWCLVKGFYPSDIAVEWESNGQPENNYKTTPPVLDSDGSFFLYSKLTVDKSRWQQGNVFSCSVMHEALHNHYTQKSLSLSPGEPEA
chain 2: EVQLLESGGGLVQPGGSLRLSCAASGFTFSNAWMNWVRQAPGKGLEWVSSISSSSSYIYYADSVKGRFTISRDNSKNTLYLQMNSLRAEDTAVYYCARAVAAGGMFWGLDQWGQGTLVTVTSSGGGGSGGGGSGGGGSQSVLTQPPSASGTPGQRVTISCSGSRSNIGSNSVHWYQQLPGTAPKLLIYGNSNRPSGVPDRFSGSKSGTSASLAISGLRSEDEADYYCQSYDSSLNDHVVFGGGTKLTVLPLAPCPPCPAPEAAGAPSVFLFPPKPKDTLMISRTPEVTCVVVDVSHEDPEVKFNWYVDGVEVHNAKTKPREEQYNSTYRVVSVLTVLHQDWLNGKEYKCKVSNKALPAPIEKTISKAKGQPREPQVCTLPPSRDELTKNQVSLSCAVKGFYPSDIAVEWESNGQPENNYKTTPPVLDSDGSFFLVSKLTVDKSRWQQGNVFSCSVMHEALHNHYTQKSLSLSPGWSHPQFEK
B3: the “% Emax BMP9” value was determined as 47%, a half-maximal response (EC50) required 1.7 nM and the “Emax (RLU)” value stood at 1.25e+06 RLU.

B4: DGL278 (bispecific antibody, human IgG1, lambda)
heavy: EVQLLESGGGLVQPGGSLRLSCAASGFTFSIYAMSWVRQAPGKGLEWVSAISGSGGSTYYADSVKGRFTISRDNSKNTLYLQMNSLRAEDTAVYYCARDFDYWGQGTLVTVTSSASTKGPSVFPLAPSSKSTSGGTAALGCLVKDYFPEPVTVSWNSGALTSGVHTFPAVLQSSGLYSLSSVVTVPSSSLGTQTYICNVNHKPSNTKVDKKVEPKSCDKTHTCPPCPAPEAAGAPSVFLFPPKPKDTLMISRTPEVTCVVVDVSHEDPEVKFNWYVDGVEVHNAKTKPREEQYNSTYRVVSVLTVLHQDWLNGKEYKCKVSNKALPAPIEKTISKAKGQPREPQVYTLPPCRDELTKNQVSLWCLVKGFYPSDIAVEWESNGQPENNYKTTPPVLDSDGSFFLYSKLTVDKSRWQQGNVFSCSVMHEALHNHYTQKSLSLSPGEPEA
light: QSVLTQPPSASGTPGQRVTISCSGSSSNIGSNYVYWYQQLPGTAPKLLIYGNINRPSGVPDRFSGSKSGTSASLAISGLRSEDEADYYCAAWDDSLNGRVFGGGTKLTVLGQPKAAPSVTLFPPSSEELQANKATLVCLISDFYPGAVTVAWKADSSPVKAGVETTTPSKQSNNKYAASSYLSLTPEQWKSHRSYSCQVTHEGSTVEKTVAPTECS
chain: EVQLLESGGGLVQPGGSLRLSCAASGFTFSIYAMSWVRQAPGKGLEWVSAISGSGGSTYYADSVKGRFTISRDNSKNTLYLQMNSLRAEDTAVYYCARDFDYWGQGTLVTVTSSGGGGSGGGGSGGGGSQSVLTQPPSASGTPGQRVTISCSGSSSNIGSNYVYWYQQLPGTAPKLLIYGNINRPSGVPDRFSGSKSGTSASLAISGLRSEDEADYYCAAWDDSLNGRVFGGGTKLTVLDKTHTCPPCPAPEAAGAPSVFLFPPKPKDTLMISRTPEVTCVVVDVSHEDPEVKFNWYVDGVEVHNAKTKPREEQYNSTYRVVSVLTVLHQDWLNGKEYKCKVSNKALPAPIEKTISKAKGQPREPQVCTLPPSRDELTKNQVSLSCAVKGFYPSDIAVEWESNGQPENNYKTTPPVLDSDGSFFLVSKLTVDKSRWQQGNVFSCSVMHEALHNHYTQKSLSLSPGKWSHPQFEK
For the molecule B4, the “% Emax BMP9” value was found to be 26%; the EC50 – broadly, the concentration at which the effect is half-maximal – turned out to be 14 nM; the “Emax (RLU)” value is 684000 RLU.

B5: DGL276 (bispecific antibody)
chain 1: EVQLLESGGGLVQPGGSLRLSCAASGFTFSSYAMSWVRQAPGKGLEWVANINQDGSEKNYVDSMRGRFTISRDNSKNTLYLQMNSLRAEDTAVYYCAREFDYWGQGTLVTVTSSGGGGSGGGGSGGGGSQSVLAQPPSASGTPGQRVTISCSGSSSNIGSNYVYWYQQLPGTAPKLLIYGNNKRPSGVPDRFSGSKSGTSASLAISGLRSEDEADYYCAAWDDSLNGRVFGGGTKLTVLCPPCPAPEAAGAPSVFLFPPKPKDTLMISRTPEVTCVVVDVSHEDPEVKFNWYVDGVEVHNAKTKPREEQYNSTYRVVSVLTVLHQDWLNGKEYKCKVSNKALPAPIEKTISKAKGQPREPQVYTLPPCRDELTKNQVSLWCLVKGFYPSDIAVEWESNGQPENNYKTTPPVLDSDGSFFLYSKLTVDKSRWQQGNVFSCSVMHEALHNHYTQKSLSLSPGEPEA
chain 2: EVQLLESGGGLVQPGGSLRLSCAASGFTFSDYYMTWIRQAPGKGLEWVSSISGGSTYYADSRKGRFTISRDNSENTLYLQMNSLRAEDTAVYYCARDFGVAGWFGQYGMDVWGQGTLVTVSSGGGGSGGGGSGGGGSQSVLTQPPSASGTPGQRVTISCTGSSSNIGAGYDVHWYQQLPGTAPKLLIYRSNQRPSGVPDRFSGSKSGTSASLAISGLRSEDEADYYCSSYAGNYNLVFGGGTKLTVLCPPCPAPEAAGAPSVFLFPPKPKDTLMISRTPEVTCVVVDVSHEDPEVKFNWYVDGVEVHNAKTKPREEQYNSTYRVVSVLTVLHQDWLNGKEYKCKVSNKALPAPIEKTISKAKGQPREPQVCTLPPSRDELTKNQVSLSCAVKGFYPSDIAVEWESNGQPENNYKTTPPVLDSDGSFFLVSKLTVDKSRWQQGNVFSCSVMHEALHNHYTQKSLSLSPGWSHPQFEK
As for B5, the “% Emax BMP9” value worked out at 43%, the response was half-maximal at 1.2 nM (EC50) and the “Emax (RLU)” value amounted to 1.14e+06 RLU.
